The values below are quoted from earlier work in PMC6842113.

This series concerns the target PSD-95 PDZ3-SH3-GK (Homo sapiens) (UniProt P78352).

As usually defined, the Kd is the constant that tells how readily two partners part at equilibrium. Consider SynGAP C-terminus (from UniProt Q9QUH6), for which the Kd is 200 nM.
